Like-named read-outs stand apart in the source and are kept apart here.

Experiment [1] concerns the target T1, RBD-His (SinoBiological, 40592-V08H) (SARS-COV-2, UniProt P0DTC2 319-541).
Experiment [2] deals with SARS-COV-2 S protein, variant B1.1.7 (Alpha), on MLV pseudotyped particles (SARS-COV-2, UniProt P0DTC2 14-1254). In words: cell-based or functional assay.
For experiment [3], the target named is T1, RBD-His (SinoBiological, 40592-V08H). The source holds these as a separate data set.
Experiment [4] has as its target T2, RBD-mFc recombinant protein (Sino Biological, 40592-V05H) (SARS-COV-2, UniProt P0DTC2 319-541).
T2 construct: domain: RBD
In words: BLI (Octet), RBD-mFc as load, 1-2G-Fc as analyte, global fit (FIG. 11C).

Experiment [5] addresses T2, RBD-mFc recombinant protein (Sino …). The experiment in a line: BLI (Octet), 1-2G-Fc as load, RBD-mFc as analyte, global fit (FIG. 11A).
Experiment [6] has as its target T1, RBD-His (SinoBiological, 40592-V08H). This is another data set of the same source.
Experiment [7] shares this target. This is another data set of the same source.
For experiment [8], the target named is T2, RBD-mFc recombinant protein (Sino …).
Experiment [9] addresses T3, S1-hFc recombinant protein (Sino Biological, printed 4059I-V02H) (SARS-COV-2, UniProt P0DTC2 16-685).
Experiment [10] deals with T2, RBD-mFc recombinant protein (Sino …). This is another data set of the same source.
In experiment [11] the target is T3, S1-hFc recombinant protein (Sino …). This is another data set of the same source.
The target in experiment [12] is T1, RBD-His (SinoBiological, 40592-V08H).

B1: RBD-1-2G-Tri (bispecific antibody)
chain: EVQLVESGGGLVQPGGSLRLSCAASGFSSIVYMGWFRQAPGKGRELVAAIDASGSTTNYPDSVEGRFTISRDNAKRMVYLQMNSLRAEDTAVYYCAIAYFTSPEYVVSQGWGQGTQVTVSSGGGGSGGGGSGGGGSEVQLVESGGGLVQPGGSLRLSCAASGFSSIVYMGWFRQAPGKGRELVAAIDASGSTTNYPDSVEGRFTISRDNAKRMVYLQMNSLRAEDTAVYYCAIAYFTSPEYVVSQGWGQGTQVTVSSGGGGSGGGGSGGGGSEVQLVESGGGLVQPGGSLRLSCAASGFSSIVYMGWFRQAPGKGRELVAAIDASGSTTNYPDSVEGRFTISRDNAKRMVYLQMNSLRAEDTAVYYCAIAYFTSPEYVVSQGWGQGTQVTVSSHHHHHH
Consider B1, for which, in experiment [1], the koff was 7e-05 s⁻¹ and the kon is 600000 M⁻¹ s⁻¹. In addition, the “IC50, pseudotyped particle entry assay, B.1.1.7 particles” value (“IC50, pseudotyped particle entry assay” for short) in experiment [2] worked out at 0.3 nM. In addition, in experiment [3], the affinity, expressed as Kd, was 0.1 nM.

B2: RBD-1-2G-Fc (Fc fusion)
chain: EVQLVESGGGLVQPGGSLRLSCAASGFSSIVYMGWFRQAPGKGRELVAAIDASGSTTNYPDSVEGRFTISRDNAKRMVYLQMNSLRAEDTAVYYCAIAYFTSPEYVVSQGWGQGTQVTVSS
notes: also called bivalent format of RBD-1-2G
On to B2, for which the “IC50, pseudotyped particle entry assay” value in experiment [2] came to 17.5 nM. Moreover, the results for the koff in experiment [4], in experiment [5] and in [6] were 0.0005 s⁻¹, 0.0017 s⁻¹ and 0.00018 s⁻¹, respectively. The kon is 73000 M⁻¹ s⁻¹ in experiment [4], 83000 M⁻¹ s⁻¹ in [5] and 91000 M⁻¹ s⁻¹ in experiment [6]. In experiment [3], the Kd was found to be 1.9 nM.

B3: single-domain antibody RBD-1-2G (VHH)
VHH: EVQLVESGGGLVQPGGSLRLSCAASGFSSIVYMGWFRQAPGKGRELVAAIDASGSTTNYPDSVEGRFTISRDNAKRMVYLQMNSLRAEDTAVYYCAIAYFTSPEYVVSQGWGQGTQVTVSS
notes: also called RBD-1-2G Nb; RBD-1-2G nanobody
For the molecule B3, the koff in experiment [7] came to 0.0011 s⁻¹; in [8], 0.00024 s⁻¹; in experiment [9], 0.0002 s⁻¹. In addition, the results for the on-rate constant (kon) in experiment [7], in experiment [8] and in experiment [9] were 752000 M⁻¹ s⁻¹, 25400 M⁻¹ s⁻¹ and 29500 M⁻¹ s⁻¹, respectively. Moreover, the “IC50, pseudotyped particle entry assay” value in [2] is 746 nM. Besides, the figures for the Kd in [10], in experiment [11] and in experiment [12] were 9.4 nM, 6.9 nM and 14.3 nM, respectively.

As usually defined, the koff is the rate constant with which the complex falls apart. One may read the kon as a measure of how fast the partners come together. A word on the Kd: it is the constant that tells how readily two partners part at equilibrium.

The record behind these values is patent US20240401239A1 (US Dept. of Health and Human Services, published 2024).
